Test results published in patent US20220403041A1 (Sanofi, published 2022).
Blank lines part the entries; values can stand above or below the binder they belong to.

How the values were obtained:
soluble CD73 dimer [1] = target: T1, soluble CD73 dimer (human, UniProt P21589 27-549, limits assumed); assay: SPR, antibody captured on Protein A chip, CD73 in flow; biphasic fit, component of abundance 43%
T1 construct: CD73 in the flow (SPR) or in solution (BLI binning); also called soluble human CD73
T1 sequence: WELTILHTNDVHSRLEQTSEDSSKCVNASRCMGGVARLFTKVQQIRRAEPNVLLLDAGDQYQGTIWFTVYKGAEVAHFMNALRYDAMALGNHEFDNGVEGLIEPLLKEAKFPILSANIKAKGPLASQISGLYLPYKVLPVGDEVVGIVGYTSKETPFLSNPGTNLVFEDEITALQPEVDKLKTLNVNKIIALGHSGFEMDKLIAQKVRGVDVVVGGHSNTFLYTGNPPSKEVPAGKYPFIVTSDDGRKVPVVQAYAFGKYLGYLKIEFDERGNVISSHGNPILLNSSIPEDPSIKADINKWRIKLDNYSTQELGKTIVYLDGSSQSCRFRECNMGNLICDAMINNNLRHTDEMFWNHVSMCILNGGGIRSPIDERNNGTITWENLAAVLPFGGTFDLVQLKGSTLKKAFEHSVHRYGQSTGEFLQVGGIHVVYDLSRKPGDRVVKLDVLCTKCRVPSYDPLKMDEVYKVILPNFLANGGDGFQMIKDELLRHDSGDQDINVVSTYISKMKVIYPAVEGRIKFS

soluble CD73 dimer [2] = target: T1, soluble CD73 dimer; assay: SPR, antibody captured on chip, CD73 in flow; biphasic fit, share after 300 s binding phase of the component with ka 1.58E+05 1/Ms
soluble CD73 dimer [3] = target: T1, soluble CD73 dimer; assay: SPR, antibody captured on chip, CD73 in flow; biphasic fit, share by T0 intercept of the component with kd 4.06E-03 1/s
soluble CD73 dimer [4] = target: T1, soluble CD73 dimer; assay: SPR, antibody captured on Protein A chip, CD73 in flow; Langmuir 1:1 fit
[5] = target: T2, human CD73 on COR-L23 lung carcinoma cells (human) (UniProt P21589)
T2 sequence: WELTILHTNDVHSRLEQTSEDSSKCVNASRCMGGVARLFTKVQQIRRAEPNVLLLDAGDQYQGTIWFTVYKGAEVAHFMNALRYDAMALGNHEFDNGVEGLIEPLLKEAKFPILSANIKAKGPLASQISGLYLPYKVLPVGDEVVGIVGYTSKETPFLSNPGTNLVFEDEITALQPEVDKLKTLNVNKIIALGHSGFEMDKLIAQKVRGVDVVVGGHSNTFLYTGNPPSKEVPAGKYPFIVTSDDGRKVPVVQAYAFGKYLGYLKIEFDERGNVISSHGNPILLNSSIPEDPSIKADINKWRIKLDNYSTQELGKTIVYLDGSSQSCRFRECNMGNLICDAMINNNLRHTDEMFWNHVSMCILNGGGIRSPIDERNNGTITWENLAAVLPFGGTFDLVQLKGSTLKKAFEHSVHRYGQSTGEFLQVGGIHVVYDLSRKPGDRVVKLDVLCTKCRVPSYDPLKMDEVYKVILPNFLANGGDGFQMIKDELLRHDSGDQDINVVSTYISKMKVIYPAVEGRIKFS

soluble CD73 dimer [6] = target: T1, soluble CD73 dimer; assay: SPR, antibody captured on chip, CD73 in flow; biphasic fit, share by T0 intercept of the component with kd 1.28E-04 1/s
soluble CD73 dimer [7] = target: T1, soluble CD73 dimer; assay: SPR, antibody captured on Protein A chip, CD73 in flow; biphasic fit, component of abundance 91%
soluble CD73 dimer [8] = target: T1, soluble CD73 dimer; assay: SPR, antibody captured on Protein A chip, CD73 in flow; biphasic fit, component of abundance 9%
soluble CD73 dimer [9] = target: T1, soluble CD73 dimer; assay: SPR, antibody captured on Protein A chip, CD73 in flow; biphasic fit, component of abundance 57%
soluble CD73 dimer [10] = target: T1, soluble CD73 dimer; assay: SPR dissociation kinetics
[11] = target: T2, human CD73 on COR-L23 lung carcinoma cells (human); assay: cell-based or functional assay
soluble CD73 dimer [12] = target: T1, soluble CD73 dimer; assay: SPR, antibody captured on chip, CD73 in flow; biphasic fit, share after 300 s binding phase of the component with ka 8.50E+05 1/Ms
soluble CD73 dimer [13] = target: T1, soluble CD73 dimer; assay: SPR, antibody captured on Protein A chip, CD73 in flow; Langmuir ka with major component kd
soluble CD73 dimer [14] = target: T1, soluble CD73 dimer; assay: SPR; KD from Langmuir ka and kd of the principal dissociation component
soluble CD73 dimer [15] = target: T1, soluble CD73 dimer; assay: SPR, antibody captured on chip, CD73 in flow; biphasic fit, share after 300 s binding phase of the component with ka 3.24E+05 1/Ms
soluble CD73 dimer [16] = target: T1, soluble CD73 dimer; assay: SPR, antibody captured on chip, CD73 in flow; biphasic fit, share by T0 intercept of the component with kd 7.06E-03 1/s
soluble CD73 dimer [17] = target: T1, soluble CD73 dimer; assay: SPR, antibody captured on Protein A chip, CD73 in flow; biphasic fit, component of abundance 30%
soluble CD73 dimer [18] = target: T1, soluble CD73 dimer; assay: SPR, antibody captured on chip, CD73 in flow; biphasic fit, share by T0 intercept of the component with kd 7.86E-05 1/s
soluble CD73 dimer [19] = target: T1, soluble CD73 dimer; assay: SPR, antibody captured on Protein A chip, CD73 in flow; biphasic fit, component of abundance 14%
soluble CD73 dimer [20] = target: T1, soluble CD73 dimer; assay: SPR, antibody on the solid support, soluble CD73 dimer in solution
soluble CD73 dimer [21] = target: T1, soluble CD73 dimer; assay: SPR, antibody captured on Protein A chip, CD73 in flow; biphasic fit, component of abundance 86%
soluble CD73 dimer [22] = target: T1, soluble CD73 dimer; assay: SPR, antibody captured on Protein A chip, CD73 in flow; biphasic fit, component of abundance 70%
soluble CD73 dimer [23] = target: T1, soluble CD73 dimer; assay: SPR, antibody captured on chip, CD73 in flow; biphasic fit, share after 300 s binding phase of the component with ka 1.50E+06 1/Ms

kon (soluble CD73 dimer [1]): 850000 M⁻¹ s⁻¹ | abundance of association component (biphasic fit) (soluble CD73 dimer [2]): 57% | abundance of dissociation component (biphasic fit) (soluble CD73 dimer [3]): 9% | koff (soluble CD73 dimer [4]): 0.000164 s⁻¹ | kon (soluble CD73 dimer [4]): 364000 M⁻¹ s⁻¹ | % inhibition of CD73 activity at 1 µg/ml antibody (COR-L23 cells, 4 h, LC/MS); cell E3.2 x TB19 [5]: 95% | abundance of dissociation component (biphasic fit) (soluble CD73 dimer [6]): 91% | koff (soluble CD73 dimer [7]): 0.000128 s⁻¹ | koff (soluble CD73 dimer [8]): 0.00406 s⁻¹ | kon (soluble CD73 dimer [9]): 158000 M⁻¹ s⁻¹ | fold more stable (kd of the principal component) than with either monovalent parental (soluble CD73 dimer [10]): 5.4 fold | EC50 (nM) of inhibition of CD73 activity (adenosine by LC/MS) [11]: 0.443 nM | Max Inhib. (projected maximal inhibition at saturating antibody) [11]: 97% | inhibition of CD73 enzymatic activity on COR-L23 cells at 1 µg/mL [11]: > 95% | abundance of association component (biphasic fit) (soluble CD73 dimer [12]): 43% | Kd (soluble CD73 dimer [13]): 0.352 nM
B1: E3.2/TB19 (bispecific antibody, part only; not given: E3.2 arm; constant regions, V domains shown, part only)
VH: QEQLQESGPGLVKPSETLSLTCTVSGGSIRNNYYNWIRQPAGKGLEWIGRIYISGTTNSNPSLKSRVTMSIDTSKNQFSLKLSSVTAADTAIYYCAREHYVSGTSLDNWGQGTLVTVSS
VL: EIVMTQSPTTLSLSPGERATLSCRASQSVNTNYFSWYQQKPGLTPRLLIYGTSTRATGIPARFSGSGSGTDFTLTISSLQPEDFGIYYCQQDYNLPYTFGQGTYLEIK

fold increase of apparent affinity (KD) over either monovalent parental antibody (soluble CD73 dimer [14]): 26 fold | abundance of association component (biphasic fit) (soluble CD73 dimer [15]): 70% | abundance of dissociation component (biphasic fit) (soluble CD73 dimer [16]): 14% | kon (soluble CD73 dimer [17]): 1.5e+06 M⁻¹ s⁻¹ | koff (soluble CD73 dimer [4]): 0.00013 s⁻¹ | kon (soluble CD73 dimer [4]): 493000 M⁻¹ s⁻¹ | abundance of dissociation component (biphasic fit) (soluble CD73 dimer [18]): 86% | koff (soluble CD73 dimer [19]): 0.00706 s⁻¹ | fold lower KD than either parental antibody (soluble CD73 dimer [20]): 15 fold | fold more stable (kd of the principal component) than with either monovalent parental (soluble CD73 dimer [10]): 8.8 fold | koff (soluble CD73 dimer [21]): 7.86e-05 s⁻¹ | kon (soluble CD73 dimer [22]): 324000 M⁻¹ s⁻¹ | abundance of association component (biphasic fit) (soluble CD73 dimer [23]): 30% | EC50 (nM) of inhibition of CD73 activity (adenosine by LC/MS) [11]: 0.619 nM | Max Inhib. (projected maximal inhibition at saturating antibody) [11]: 97% | Kd (soluble CD73 dimer [13]): 0.16 nM
B2: CL25/TB19 (bispecific antibody, part only; not given: CL25 arm; constant regions, V domains shown, part only)
VH: QEQLQESGPGLVKPSETLSLTCTVSGGSIRNNYYNWIRQPAGKGLEWIGRIYISGTTNSNPSLKSRVTMSIDTSKNQFSLKLSSVTAADTAIYYCAREHYVSGTSLDNWGQGTLVTVSS
VL: EIVMTQSPTTLSLSPGERATLSCRASQSVNTNYFSWYQQKPGLTPRLLIYGTSTRATGIPARFSGSGSGTDFTLTISSLQPEDFGIYYCQQDYNLPYTFGQGTYLEIK
